Data from patent US7951385B2, “Probiotic strain and antimicrobial peptide derived therefrom” (Cipla Medpro Research and Development (Pty) Ltd., priority 2006, dated 2011).
Read-outs that look alike come from different tables or passages of the source.

Tests used:
[1] = tested on: Lactobacillus casei LHS; assay: Effect of enzymes, temperature, pH and detergents on antimicrobial activity of peptide ST4SA; type: physicochemical; design: key: − = no activity; + = activity zones of at least 5 mm in diameter
Method: Antimicrobial activity was expressed as arbitrary units (AU) per ml cell-free supernatant. One AU is defined as the reciprocal of the highest dilution showing a clear zone of growth inhibition and is calculated as follows:
a^b×100, where “a” represents the dilution factor and “b” the last dilution that produces an inhibition zone of at least 2 mm in diameter. Activity is expressed per ml by multiplication with 100. Lactobacillus casei LHS was used as indicator strain.
The cells were harvested (8 000×g, 4° C., 15 min) and the cell-free supernatants adjusted to pH 6.0 with 6M NaOH. One ml of each supernatant was treated with catalase (Boehringer Mannheim) at 0.1 mg/ml (final concentration), Proteinase K (Roche, Indianapolis, Ind., USA), pronase, papain, pepsin and trypsin (Boehringer Mannheim GmbH, Germany), at 1 mg/ml and 0.1 mg/ml (final concentration), respectively. After incubation the enzymes were heat-inactivated (3 min at 100° C.) and tested for antimicrobial activity, as described before.
Aliquots of peptide ST4SA were exposed to heat treatments of 30° C., 60° C. and 100° C. for 10, 30 and 90 min, respectively, and 121° C. for 20 min (Table 3). The samples were then tested for antimicrobial activity, as described before.
In a separate experiment, samples of peptide ST4SA were adjusted to pH values ranging from 2-12, incubated at 37° C. for 30 min, neutralised to pH 7, and then tested for antimicrobial activity (Table 3).

[2] = tested on: Enterococcus spp. HKLHS; assay: β-galactosidase leakage after treatment of pathogens with peptide ST4SA; type: cell-based; conditions: Control organism Enterococcus spp. HKLHS
Source text: (§1) Further evidence of cell membrane damage and leakage of cellular constituents was obtained by testing for extracellular DNA and extracellular β-galactosidase activity.

[3] = tested on: Klebsiella pneumoniae; assay: as above; type: cell-based; conditions: Klebsiella pneumoniae 30
Source text: as §1

[4] = tested on: Middle ear isolates (unknown); assay: as above; type: cell-based
Source text: as §1

[5] = tested on: Staphylococcus aureus; assay: as above; type: cell-based; conditions: Staphylococcus aureus 36
Source text: as §1

[6] = tested on: Streptococcus pneumoniae; assay: as above; type: cell-based
Source text: as §1

[7] = tested on: Streptococcus pyogenes; assay: as above; type: cell-based; conditions: Streptococcus pyogenes 20
Source text: as §1

[8] = type: physicochemical
Method: The stability of peptide ST4SA, suspended in sterile distilled water, was tested at temperatures ranging from −20° C. to 60° C. over 42 days (FIG. 12). The peptide remained stable at −20° C. for 42 days and for three weeks at 4° C. […] Peptide ST4SA in powder form did, however, remain stable for 6 months at room temperature (25° C.). Peptide ST4SA will be produced in powder form and marketed as such. Once dissolved in sterile distilled water, peptide ST4SA may be kept for three weeks at 4° C. (see FIG. 12).

[9] = tested on: pathogens (Streptococcus pneumoniae, Klebsiella pneumoniae, middle ear isolates); assay: Cell lysis / growth inhibition of pathogens in BHI broth; type: cell-based; conditions: peptide added at mid-exponential phase, BHI broth (FIGS. 15 to 23)
Method: A 0.2% (v/v) inoculum of an overnight pathogen was inoculated into BHI broth. Peptide ST4SA was added to each pathogen at mid-exponential phase.

[10] = tested on: L. monocytogenes; assay: L. monocytogenes challenged with ST4SA in in vitro gastro-intestinal (GIT) model; type: cell-based, Listeria monocytogenes
Method: The antimicrobial activity of ST4SA against L. monocytogenes in an in vitro gastro-intestinal model was determined. ST4SA was inoculated in the stomach vessel as described hereinbefore. L. monocytogenes (1×10^4) was inoculated in the duodenum vessel of the GIT. Samples were taken from each vessel and plated out on Enterococcus and Listeria specific medium, respectively. As control, only L. monocytogenes was inoculated in the GIT model.

[11] = tested on: Lactobacillus sakei DSM 20017; assay: Blocking of the Lipid II target site with vancomycin; type: cell-based; conditions: L. sakei DSM 20017, FIG. 26
Source text: To test this hypothesis, the Lipid II target site of Lactobacillus sakei DSM 20017 (sensitive to peptide ST 4SA) was blocked with vancomycin (see schematic presentation, FIG. 26). Vancomycin adheres to the amino acid side chain of the Lipid II molecule, which would, theoretically, prevent peptide ST4SA from binding to the same site (that is if Lipid II acts as receptor). […] The fact that peptide ST4SA binds to more than one anchoring site on the sensitive cell may explain why it has such a broad spectrum of antimicrobial activity (inhibitory to Gram-positive and Gram-negative bacteria).

[12] = tested on: pathogenic bacteria (Listeria, Bacillus and Staphylococcus); assay: Challenge study with red meat as model, PE-bound peptide; conditions: surface (PE)-bound peptide
Method: Peptide ST4SA adhered strongly, and it would seem irreversibly, to the PE film. Release of peptide ST4SA from the surface of PE was only possible after 1 h with a current of 30 mA. […] The encapsulation of the antimicrobial peptide in the polymer leads to a slow release of the antimicrobial peptide and an extended period of treatment of a microbial infection.

With “Peptide ST4SA: broad-spectrum antibacterial peptide (bacteriocin) produced by Enterococcus mundtii strain ST4SA, SEQ. ID. NO. 12 (MSQVVGGKYYGNGVSCNKKGCSVDWGKAIGIIGNNSAANLATGGAAGWKS; ENTEROCOCCUS MUNDTII ST4SA)” the “Antimicrobial activity after treatment” value ([1]; Detergents (1%): SDS) was “+ (+ = activity zones of at least 5 mm in diameter)”, the “Antimicrobial activity after treatment” value ([1]; Detergents (1%): Triton X-100) was “+ (+ = activity zones of at least 5 mm in diameter)” and the “Antimicrobial activity after treatment” value ([1]; Detergents (1%): Triton X-114) was “−”. The “Antimicrobial activity after treatment” value ([1]; Detergents (1%): Tween 20, Tween 80) was “+ (+ = activity zones of at least 5 mm in diameter)”, the “Antimicrobial activity after treatment” value ([1]; Detergents (1%): urea) was “+ (+ = activity zones of at least 5 mm in diameter)” and the “Antimicrobial activity after treatment” value ([1]; EDTA: 0.1 mM, 1.0 mM, 2.0 mM) was “+ (+ = activity zones of at least 5 mm in diameter)”. The “Antimicrobial activity after treatment” value ([1]; Enzymes: Proteinase K) was “−”, the “Antimicrobial activity after treatment” value ([1]; Enzymes: pepsin) was “−” and the “Antimicrobial activity after treatment” value ([1]; Enzymes: pronase) was “−”. For the same substance, the “Antimicrobial activity after treatment” value ([1]; Enzymes: α-amylase) was “+ (+ = activity zones of at least 5 mm in diameter)”, the “Antimicrobial activity after treatment” value ([1]; Heat: 30, 60, 100° C. for 10 min) was “+ (+ = activity zones of at least 5 mm in diameter)” and the “Antimicrobial activity after treatment” value ([1]; Heat: 30, 60, 100° C. for 30 min) was “+ (+ = activity zones of at least 5 mm in diameter)”. The “Antimicrobial activity after treatment” value ([1]; Heat: 30, 60, 100° C. for 90 min) was “+ (+ = activity zones of at least 5 mm in diameter)”, the “Antimicrobial activity after treatment” value ([1]; Heat: 121° C. for 20 min) was “−” and the “Antimicrobial activity after treatment” value ([1]; pH 2.0-12.0, 37° C. for 30 min, neutralised to pH 7) was “+ (+ = activity zones of at least 5 mm in diameter)”. For the same substance, the “Antimicrobial activity after treatment” value ([1]; proteolytic enzyme papain) was “inactivated”, the “Antimicrobial activity after treatment” value ([1]; proteolytic enzyme trypsin) was “inactivated” and the “β-galactosidase recorded at OD420” value [2] was “No leakage”. For the same substance, the “β-galactosidase recorded at OD420” value [3] was “No leakage”, the “β-galactosidase recorded at OD420” value ([4]; Middle ear isolate BW) was 0.370 and the “β-galactosidase recorded at OD420” value ([4]; Middle ear isolate DW) was 0.293. The “β-galactosidase recorded at OD420” value ([4]; Middle ear isolate F) was 0.318, the “β-galactosidase recorded at OD420” value ([4]; Middle ear isolate GW) was 0.373 and the “β-galactosidase recorded at OD420” value ([4]; Middle ear isolate HW) was 0.235. The “β-galactosidase recorded at OD420” value ([4]; Middle ear isolate K) was “No leakage”, the “β-galactosidase recorded at OD420” value ([4]; Middle ear isolate L) was “No leakage” and the “β-galactosidase recorded at OD420” value ([4]; Middle ear isolate M) was “No leakage”. For the same substance, the “β-galactosidase recorded at OD420” value [5] was “No leakage”, the “β-galactosidase recorded at OD420” value ([6]; Streptococcus pneumoniae 27) was “No leakage” and the “β-galactosidase recorded at OD420” value ([6]; Streptococcus pneumoniae 29) was “No leakage”. The “β-galactosidase recorded at OD420” value ([6]; Streptococcus pneumoniae D) was “No leakage”, the “β-galactosidase recorded at OD420” value [7] was “No leakage” and the Stability [8] was “Stability decreased after one week”. The “Time peptide remained stable” value ([8]; powder form, room temperature (25° C.)) was 6 months, the “Time peptide remained stable” value ([8]; suspended in sterile distilled water, 4° C.) was “three weeks” and the “Time peptide remained stable” value ([8]; suspended in sterile distilled water, −20° C.) was 42 days. For the same substance, the “Mode of action on pathogens” value [9] was “acted in a bactericidal manner against most pathogens”, the “L. monocytogenes lower than control” value ([10]; ileum vessel, compared with the control) was 1×10^1 cfu/ml and the “Growth of L. monocytogenes” value ([10]; jejunum vessel, reduced from 8×10^4 (control)) was 2×10^4. The “Effect on target cells after blocking Lipid II with vancomycin” value [11] was “resulted in growth inhibition” and the “Growth of pathogenic bacteria on red meat” value [12] was “prevented the growth of pathogenic bacteria”.
